# In article PMC8534323:
# pKd: −log10 of the molar value.
# How the values were obtained:
# [1] = target: Als3 (agglutinin-like sequence protein 3), isolated from the surface of C. albicans (C. albicans (endogenous in strain ATCC 10231)) (UniProt Q59L12); assay: ELISA-like microplate ligand-binding assay; fungal protein immobilised on the microplate, soluble fluorescent-labeled histones; saturation one-site binding model
# [2] = target: enolase (Eno1) (C. albicans (endogenous in strain ATCC 10231)) (UniProt P30575); assay: as above
# [3] = target: Phosphoglycerate mutase 1 (Gpm1), recombinant (C. albicans) (UniProt P82612); assay: SPR
# Sequence of Phosphoglycerate mutase 1 (Gpm1), recombinant (C. albicans) (P82612 whole entry): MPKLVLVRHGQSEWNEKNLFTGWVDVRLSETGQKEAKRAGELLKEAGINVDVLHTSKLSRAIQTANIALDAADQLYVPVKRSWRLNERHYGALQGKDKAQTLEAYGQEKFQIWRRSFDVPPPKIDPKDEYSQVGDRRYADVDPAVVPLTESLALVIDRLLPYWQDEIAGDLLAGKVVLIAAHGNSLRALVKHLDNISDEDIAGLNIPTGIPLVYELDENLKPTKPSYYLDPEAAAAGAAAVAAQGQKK
# [4] = target: Als3 (agglutinin-like sequence protein 3), isolated from the surface of C. albicans (C. albicans (endogenous in strain ATCC 10231)) (UniProt Q59L12); assay: SPR
# [5] = target: triosephosphate isomerase 1 (Tpi1) (C. albicans (endogenous in strain ATCC 10231)) (UniProt Q9P940); assay: SPR
# Sequence of triosephosphate isomerase 1 (Tpi1) (C. albicans (endogenous in strain ATCC 10231)) (Q9P940 whole entry): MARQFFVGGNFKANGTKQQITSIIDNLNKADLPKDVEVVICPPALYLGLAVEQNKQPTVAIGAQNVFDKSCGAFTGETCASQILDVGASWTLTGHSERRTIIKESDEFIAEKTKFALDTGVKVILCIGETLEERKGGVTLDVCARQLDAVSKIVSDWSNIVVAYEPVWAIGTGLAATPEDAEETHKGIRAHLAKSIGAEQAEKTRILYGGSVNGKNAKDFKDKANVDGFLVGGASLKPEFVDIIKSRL
# [6] = target: enolase (Eno1) (C. albicans (endogenous in strain ATCC 10231)) (UniProt P30575); assay: SPR
# [7] = target: Phosphoglycerate mutase 1 (Gpm1), recombinant (C. albicans) (UniProt P82612); assay: ELISA-like microplate ligand-binding assay; fungal protein immobilised on the microplate, soluble fluorescent-labeled histones; saturation one-site binding model
Substance,pKd [1],pKd [2],pKd [3],pKd [4],pKd [5],pKd [6],also measured
histone H2 (from UniProt P0C0S8 1-130) (natural protein),5.75,6.04,,,,,
cathelicidin-derived peptide LL-37,,,6.22,6.64,7.17,7.84,
LL-37(7)Cit (peptide),,,,,,,loss of binding against native LL-37 [3]: 75%; decrease of binding against native LL-37 [4]: 50%; decrease of binding against native LL-37 [6]: 50%
histone H3 (from UniProt P68431 1-136) (natural protein),7.63,5.91,,,,,pKd [7]: 6.59
lactotransferrin (LF) (from UniProt P02788 20-710) (natural protein),,,,7.07,,,
myeloperoxidase (MPO) (enzyme),,,6.45,7.94,7.35,7.10,
